From patent US20160272683A1 (Novo Nordisk, published 2016)
Numbered stars: 1 amine (or outer) side, 2 acyl side, 3 side chain; on linkers, the order of the positions; unused ones are H or OH. * marks the point of attachment. C20 diacid = O=C(O)CCCCCCCCCCCCCCCCCCC(=O)*; C18 diacid = O=C(O)CCCCCCCCCCCCCCCCC(=O)*; γGlu = O=C(O)[C@H](CCC(=O)[*:2])N[*:1]; Palmitoyl = CCCCCCCCCCCCCCCC(=O)*

T1: human calcitonin receptor (human, UniProt P30988 25-474)
T1 sequence (looked up): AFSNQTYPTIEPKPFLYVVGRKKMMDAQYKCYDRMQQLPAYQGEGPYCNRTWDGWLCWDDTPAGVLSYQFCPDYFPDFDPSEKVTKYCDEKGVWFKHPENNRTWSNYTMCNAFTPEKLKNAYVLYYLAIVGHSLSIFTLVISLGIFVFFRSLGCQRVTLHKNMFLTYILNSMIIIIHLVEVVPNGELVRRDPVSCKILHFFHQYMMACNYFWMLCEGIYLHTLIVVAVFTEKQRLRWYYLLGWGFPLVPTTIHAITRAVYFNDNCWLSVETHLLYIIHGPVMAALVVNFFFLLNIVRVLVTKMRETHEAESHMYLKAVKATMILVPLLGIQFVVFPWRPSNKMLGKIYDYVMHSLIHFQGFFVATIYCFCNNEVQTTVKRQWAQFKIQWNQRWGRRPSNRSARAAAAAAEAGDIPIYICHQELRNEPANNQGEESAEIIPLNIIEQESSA

T2: human amylin 3(a) receptor (human calcitonin receptor co-expressed with RAMP-3) (human, UniProt P30988 25-474; O60896 24-148, limits assumed)
T2 sequence (looked up) 1: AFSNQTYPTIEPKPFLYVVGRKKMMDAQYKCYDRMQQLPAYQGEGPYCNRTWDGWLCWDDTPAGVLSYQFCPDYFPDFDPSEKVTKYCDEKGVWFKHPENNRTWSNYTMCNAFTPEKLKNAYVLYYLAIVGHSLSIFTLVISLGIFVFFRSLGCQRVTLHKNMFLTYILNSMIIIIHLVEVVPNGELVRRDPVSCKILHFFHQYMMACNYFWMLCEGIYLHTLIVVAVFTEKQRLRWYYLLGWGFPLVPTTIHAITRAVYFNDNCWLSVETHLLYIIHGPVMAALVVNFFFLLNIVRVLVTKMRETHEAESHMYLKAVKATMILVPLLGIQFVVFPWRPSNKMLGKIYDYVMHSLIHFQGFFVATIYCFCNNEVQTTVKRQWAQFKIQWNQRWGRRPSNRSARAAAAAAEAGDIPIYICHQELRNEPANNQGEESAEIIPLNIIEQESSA
T2 sequence (looked up) 2: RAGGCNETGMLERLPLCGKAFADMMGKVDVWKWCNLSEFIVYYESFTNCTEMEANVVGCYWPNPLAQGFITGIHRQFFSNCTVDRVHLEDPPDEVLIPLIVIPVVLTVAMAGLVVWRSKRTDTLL

B1: [N-terminal(C18 diacid-gGlu), des1, 9V, 30S, 31G]mimylin (peptide)
peptide: {C18 diacid-γGlu}-ASELSTAVLGRLSAELHELATLPRTETGSGSP-NH2
SMILES: CC(C)C[C@H](NC(=O)[C@H](CCC(=O)O)NC(=O)[C@H](Cc1c[nH]cn1)NC(=O)[C@H](CC(C)C)NC(=O)[C@H](CCC(=O)O)NC(=O)[C@H](C)NC(=O)[C@H](CO)NC(=O)[C@H](CC(C)C)NC(=O)[C@H](CCCNC(=N)N)NC(=O)CNC(=O)[C@H](CC(C)C)NC(=O)[C@@H](NC(=O)[C@H](C)NC(=O)[C@@H](NC(=O)[C@H](CO)NC(=O)[C@H](CC(C)C)NC(=O)[C@H](CCC(=O)O)NC(=O)[C@H](CO)NC(=O)[C@H](C)NC(=O)CC[C@H](NC(=O)CCCCCCCCCCCCCCCCC(=O)O)C(=O)O)[C@@H](C)O)C(C)C)C(=O)N[C@@H](C)C(=O)N[C@H](C(=O)N[C@@H](CC(C)C)C(=O)N1CCC[C@H]1C(=O)N[C@@H](CCCNC(=N)N)C(=O)N[C@H](C(=O)N[C@@H](CCC(=O)O)C(=O)N[C@H](C(=O)NCC(=O)N[C@@H](CO)C(=O)NCC(=O)N[C@@H](CO)C(=O)N1CCC[C@H]1C(N)=O)[C@@H](C)O)[C@@H](C)O)[C@@H](C)O
B2: [N-terminal(C18 diacid-gGlu), des1, 4Q, 30S, 31G]mimylin (peptide)
peptide: {C18 diacid-γGlu}-ASQLSTAALGRLSAELHELATLPRTETGSGSP-NH2
SMILES: CC(C)C[C@H](NC(=O)[C@H](C)NC(=O)[C@H](C)NC(=O)[C@@H](NC(=O)[C@H](CO)NC(=O)[C@H](CC(C)C)NC(=O)[C@H](CCC(N)=O)NC(=O)[C@H](CO)NC(=O)[C@H](C)NC(=O)CC[C@H](NC(=O)CCCCCCCCCCCCCCCCC(=O)O)C(=O)O)[C@@H](C)O)C(=O)NCC(=O)N[C@@H](CCCNC(=N)N)C(=O)N[C@@H](CC(C)C)C(=O)N[C@@H](CO)C(=O)N[C@@H](C)C(=O)N[C@@H](CCC(=O)O)C(=O)N[C@@H](CC(C)C)C(=O)N[C@@H](Cc1c[nH]cn1)C(=O)N[C@@H](CCC(=O)O)C(=O)N[C@@H](CC(C)C)C(=O)N[C@@H](C)C(=O)N[C@H](C(=O)N[C@@H](CC(C)C)C(=O)N1CCC[C@H]1C(=O)N[C@@H](CCCNC(=N)N)C(=O)N[C@H](C(=O)N[C@@H](CCC(=O)O)C(=O)N[C@H](C(=O)NCC(=O)N[C@@H](CO)C(=O)NCC(=O)N[C@@H](CO)C(=O)N1CCC[C@H]1C(N)=O)[C@@H](C)O)[C@@H](C)O)[C@@H](C)O
B3: [N-terminal(C20 diacid-gGlu), des1, 25H, 30S, 31G]mimylin (peptide)
peptide: {C20 diacid-γGlu}-ASELSTAALGRLSAELHELATLPHTETGSGSP-NH2
SMILES: CC(C)C[C@H](NC(=O)[C@H](C)NC(=O)[C@H](C)NC(=O)[C@@H](NC(=O)[C@H](CO)NC(=O)[C@H](CC(C)C)NC(=O)[C@H](CCC(=O)O)NC(=O)[C@H](CO)NC(=O)[C@H](C)NC(=O)CC[C@H](NC(=O)CCCCCCCCCCCCCCCCCCC(=O)O)C(=O)O)[C@@H](C)O)C(=O)NCC(=O)N[C@@H](CCCNC(=N)N)C(=O)N[C@@H](CC(C)C)C(=O)N[C@@H](CO)C(=O)N[C@@H](C)C(=O)N[C@@H](CCC(=O)O)C(=O)N[C@@H](CC(C)C)C(=O)N[C@@H](Cc1c[nH]cn1)C(=O)N[C@@H](CCC(=O)O)C(=O)N[C@@H](CC(C)C)C(=O)N[C@@H](C)C(=O)N[C@H](C(=O)N[C@@H](CC(C)C)C(=O)N1CCC[C@H]1C(=O)N[C@@H](Cc1c[nH]cn1)C(=O)N[C@H](C(=O)N[C@@H](CCC(=O)O)C(=O)N[C@H](C(=O)NCC(=O)N[C@@H](CO)C(=O)NCC(=O)N[C@@H](CO)C(=O)N1CCC[C@H]1C(N)=O)[C@@H](C)O)[C@@H](C)O)[C@@H](C)O
B4: [N-terminal(C20 diacid-gGlu), des1, 23Y, 30S, 31G, 33Y]mimylin (peptide)
peptide: {C20 diacid-γGlu}-ASELSTAALGRLSAELHELATYPRTETGSGSY-NH2
SMILES: CC(C)C[C@H](NC(=O)[C@H](C)NC(=O)[C@H](C)NC(=O)[C@@H](NC(=O)[C@H](CO)NC(=O)[C@H](CC(C)C)NC(=O)[C@H](CCC(=O)O)NC(=O)[C@H](CO)NC(=O)[C@H](C)NC(=O)CC[C@H](NC(=O)CCCCCCCCCCCCCCCCCCC(=O)O)C(=O)O)[C@@H](C)O)C(=O)NCC(=O)N[C@@H](CCCNC(=N)N)C(=O)N[C@@H](CC(C)C)C(=O)N[C@@H](CO)C(=O)N[C@@H](C)C(=O)N[C@@H](CCC(=O)O)C(=O)N[C@@H](CC(C)C)C(=O)N[C@@H](Cc1c[nH]cn1)C(=O)N[C@@H](CCC(=O)O)C(=O)N[C@@H](CC(C)C)C(=O)N[C@@H](C)C(=O)N[C@H](C(=O)N[C@@H](Cc1ccc(O)cc1)C(=O)N1CCC[C@H]1C(=O)N[C@@H](CCCNC(=N)N)C(=O)N[C@H](C(=O)N[C@@H](CCC(=O)O)C(=O)N[C@H](C(=O)NCC(=O)N[C@@H](CO)C(=O)NCC(=O)N[C@@H](CO)C(=O)N[C@@H](Cc1ccc(O)cc1)C(N)=O)[C@@H](C)O)[C@@H](C)O)[C@@H](C)O
B5: [N-terminal(C18 diacid), 5I, 9I, 10I, 20I]mimylin (peptide)
peptide: {C18 diacid}-EASEISTAIIGRLSAELHEIATLPRTETGPESP-NH2
SMILES: CC[C@H](C)[C@H](NC(=O)[C@H](C)NC(=O)[C@@H](NC(=O)[C@H](CO)NC(=O)[C@@H](NC(=O)[C@H](CCC(=O)O)NC(=O)[C@H](CO)NC(=O)[C@H](C)NC(=O)[C@H](CCC(=O)O)NC(=O)CCCCCCCCCCCCCCCCC(=O)O)[C@@H](C)CC)[C@@H](C)O)C(=O)N[C@H](C(=O)NCC(=O)N[C@@H](CCCNC(=N)N)C(=O)N[C@@H](CC(C)C)C(=O)N[C@@H](CO)C(=O)N[C@@H](C)C(=O)N[C@@H](CCC(=O)O)C(=O)N[C@@H](CC(C)C)C(=O)N[C@@H](Cc1c[nH]cn1)C(=O)N[C@@H](CCC(=O)O)C(=O)N[C@H](C(=O)N[C@@H](C)C(=O)N[C@H](C(=O)N[C@@H](CC(C)C)C(=O)N1CCC[C@H]1C(=O)N[C@@H](CCCNC(=N)N)C(=O)N[C@H](C(=O)N[C@@H](CCC(=O)O)C(=O)N[C@H](C(=O)NCC(=O)N1CCC[C@H]1C(=O)N[C@@H](CCC(=O)O)C(=O)N[C@@H](CO)C(=O)N1CCC[C@H]1C(N)=O)[C@@H](C)O)[C@@H](C)O)[C@@H](C)O)[C@@H](C)CC)[C@@H](C)CC
B6: [N-terminal(C20 diacid-gGlu), des1, 4G, 23Y, 30S, 31G]mimylin (peptide)
peptide: {C20 diacid-γGlu}-ASGLSTAALGRLSAELHELATYPRTETGSGSP-NH2
B7: [N-terminal(C18 diacid-gGlu), des1, 30S, 31G, 32P]mimylin (peptide)
peptide: {C18 diacid-γGlu}-ASELSTAALGRLSAELHELATLPRTETGSGPP-NH2
SMILES: CC(C)C[C@H](NC(=O)[C@H](C)NC(=O)[C@H](C)NC(=O)[C@@H](NC(=O)[C@H](CO)NC(=O)[C@H](CC(C)C)NC(=O)[C@H](CCC(=O)O)NC(=O)[C@H](CO)NC(=O)[C@H](C)NC(=O)CC[C@H](NC(=O)CCCCCCCCCCCCCCCCC(=O)O)C(=O)O)[C@@H](C)O)C(=O)NCC(=O)N[C@@H](CCCNC(=N)N)C(=O)N[C@@H](CC(C)C)C(=O)N[C@@H](CO)C(=O)N[C@@H](C)C(=O)N[C@@H](CCC(=O)O)C(=O)N[C@@H](CC(C)C)C(=O)N[C@@H](Cc1c[nH]cn1)C(=O)N[C@@H](CCC(=O)O)C(=O)N[C@@H](CC(C)C)C(=O)N[C@@H](C)C(=O)N[C@H](C(=O)N[C@@H](CC(C)C)C(=O)N1CCC[C@H]1C(=O)N[C@@H](CCCNC(=N)N)C(=O)N[C@H](C(=O)N[C@@H](CCC(=O)O)C(=O)N[C@H](C(=O)NCC(=O)N[C@@H](CO)C(=O)NCC(=O)N1CCC[C@H]1C(=O)N1CCC[C@H]1C(N)=O)[C@@H](C)O)[C@@H](C)O)[C@@H](C)O
B8: [N-terminal(C20 diacid-gGlu), des1, 30T, 31G, 32T]mimylin (peptide)
peptide: {C20 diacid-γGlu}-ASELSTAALGRLSAELHELATLPRTETGTGTP-NH2
SMILES: CC(C)C[C@H](NC(=O)[C@H](C)NC(=O)[C@H](C)NC(=O)[C@@H](NC(=O)[C@H](CO)NC(=O)[C@H](CC(C)C)NC(=O)[C@H](CCC(=O)O)NC(=O)[C@H](CO)NC(=O)[C@H](C)NC(=O)CC[C@H](NC(=O)CCCCCCCCCCCCCCCCCCC(=O)O)C(=O)O)[C@@H](C)O)C(=O)NCC(=O)N[C@@H](CCCNC(=N)N)C(=O)N[C@@H](CC(C)C)C(=O)N[C@@H](CO)C(=O)N[C@@H](C)C(=O)N[C@@H](CCC(=O)O)C(=O)N[C@@H](CC(C)C)C(=O)N[C@@H](Cc1c[nH]cn1)C(=O)N[C@@H](CCC(=O)O)C(=O)N[C@@H](CC(C)C)C(=O)N[C@@H](C)C(=O)N[C@H](C(=O)N[C@@H](CC(C)C)C(=O)N1CCC[C@H]1C(=O)N[C@@H](CCCNC(=N)N)C(=O)N[C@H](C(=O)N[C@@H](CCC(=O)O)C(=O)N[C@H](C(=O)NCC(=O)N[C@H](C(=O)NCC(=O)N[C@H](C(=O)N1CCC[C@H]1C(N)=O)[C@@H](C)O)[C@@H](C)O)[C@@H](C)O)[C@@H](C)O)[C@@H](C)O
B9: [N-terminal(C16)]mimylin (peptide)
peptide: Palmitoyl-EASELSTAALGRLSAELHELATLPRTETGPESP-NH2

Experiments:
[1] = molecular target: T1, human calcitonin receptor; assay: cell-based or functional assay
[2] = molecular target: T2, human amylin 3(a) receptor (human …); assay: cell-based or functional assay

Binder | hCTR funct. EC50 (pM) [1] [pM] | hAmylin-R funct. EC50 (pM) [2] [pM]
B1 | 14 | 10
B2 | 11 | 9
B3 | 18 | 27
B4 | 29 | 32
B5 | 6 | 10
B6 | 42 | 38
B7 | 19 | 80
B8 | 45 | 50
B9 | 13 | 10
